Laboratory results as given in patent US9119806B2, “Culturing circular ssDNA viruses for the production of vaccines” (priority 2007, dated 2015).

Legend:
[1] = tested on: PCV2 capsids in 3D4/31 cells; test: Entry (internalization) of PCV2 recombinant capsids in 3D4/31 cells; type: cell-based, Porcine circovirus 2; details: 3D4/31 cells treated with IFN-gamma
Procedure: To study the internalization of recombinant capsids on 3D4/31, cells were washed with RPMI-1640 at 37° C. and then incubated with capsids at 37° C. for 15 minutes followed by washing of unbound capsids. Cells were then fixed with a 3% solution of paraformaldehyde (rPBS) for 10 minutes at 30, 60 and 120 minutes since the addition of capsids into the cells, washed with PBS, and permeabilized in a 0.1% Triton X-100 solution in rPBS. Capsids were stained by incubating the calls with a biotin-conjugated anti-PCV2 swine polyclonal antibody followed by streptavidin-FITC (Molecular Probes, Eugene, Oreg.).

[2] = tested on: PCV2 (field strain Imp-1121); test: PCV2 replication in inoculated pigs given IFN-gamma or ConA; type: in vivo; details: pigs inoculated at 19 days of age; samples 10, 15, 21 days post inoculation
Procedure: Pigs are inoculated with PCV2 (field strain Imp-1121) at 19 days of age. These inoculated pigs are divided in 3 groups. One group contains control pigs (only PCV2). The second group of pigs receives recombinant IFN-gamma (100,000 U per pig every three days). The third group contains pigs that receive ConA (1.5 mg/kg every three days). At different times post inoculation (10, 15, 21 days) samples are collected and the replication of the virus is assessed.

B1: IFN-gamma: Porcine interferon gamma purchased from R&D systems (protein, UniProt P17803 24-166, looked up)
Interferon gamma: QAPFFKEITILKDYFNASTSDVPNGGPLFLEILKNWKEESDKKIIQSQIVSFYFKFFEIFKDNQAIQRSMDVIKQDMFQRFLNGSSGKLNDFEKLIKIPVDNLQIQRKAISELIKVMNDLSPRSNLRKRKRSQTMFQGQRASK
[1]
  number of internalized virions (in words): significant increase
[2]
  replication of PCV2 compared to control pigs (in words): increase in the replication of PCV2
